{
  "source": "paper PMC12884772",
  "about": "“Macrophagic Sclerostin Loop2‐ApoER2 Interaction Required by Sclerostin for Cardiovascular Protective Action” (Advanced Science, 2025)",
  "target": "T1, ApoER2 (Homo sapiens, UniProt Q14114)",
  "T1 construct": "purchased R&D 3520‐AR",
  "T1 sequence (Q14114 33-963)": "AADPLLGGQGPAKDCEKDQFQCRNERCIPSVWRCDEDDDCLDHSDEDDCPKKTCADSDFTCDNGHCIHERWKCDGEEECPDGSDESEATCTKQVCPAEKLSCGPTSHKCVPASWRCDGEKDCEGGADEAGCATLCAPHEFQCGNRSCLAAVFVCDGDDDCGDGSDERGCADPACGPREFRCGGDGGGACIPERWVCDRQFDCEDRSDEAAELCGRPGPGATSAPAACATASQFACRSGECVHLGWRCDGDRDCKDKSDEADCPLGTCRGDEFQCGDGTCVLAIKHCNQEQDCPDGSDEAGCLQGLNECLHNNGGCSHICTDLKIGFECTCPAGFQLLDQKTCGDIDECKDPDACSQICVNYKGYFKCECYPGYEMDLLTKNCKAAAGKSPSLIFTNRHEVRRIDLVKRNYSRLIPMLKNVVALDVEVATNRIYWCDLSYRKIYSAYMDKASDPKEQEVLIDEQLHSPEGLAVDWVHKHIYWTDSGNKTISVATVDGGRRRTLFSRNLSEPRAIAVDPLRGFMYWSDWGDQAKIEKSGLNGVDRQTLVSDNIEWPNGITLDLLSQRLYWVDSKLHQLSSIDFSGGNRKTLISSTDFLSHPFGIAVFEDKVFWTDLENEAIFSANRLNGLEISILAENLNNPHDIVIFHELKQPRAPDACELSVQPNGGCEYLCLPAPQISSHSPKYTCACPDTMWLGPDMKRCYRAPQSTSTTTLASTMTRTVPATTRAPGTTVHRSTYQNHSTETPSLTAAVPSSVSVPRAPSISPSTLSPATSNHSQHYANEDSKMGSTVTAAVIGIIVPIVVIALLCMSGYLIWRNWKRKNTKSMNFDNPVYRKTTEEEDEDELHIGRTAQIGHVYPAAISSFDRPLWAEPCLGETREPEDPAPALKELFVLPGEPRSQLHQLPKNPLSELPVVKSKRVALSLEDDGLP",
  "assay": "Biolayer interferometry (BLI) binding of ApoER2 and sclerostin / sclerostin loop2",
  "method": "The interaction of full‐length (FL)/truncated ApoER2 with full‐length (FL) /truncated sclerostin in macrophages (RAW264.7) were determined by pull‐down assay and Co‐IP assay. The binding affinity of ApoER2 to FL sclerostin and sclerostin loop2 were determined by biolayer interferometry (BLI) analysis. Moreover, the binding of sclerostin to ApoER2 on macrophages (RAW264.7) was examined by confocal microscopy.\nBiolayer interferometry (BLI) analysis was performed on the Biomolecular Interaction Analyzer (ForteBio, Octet RED96e). To determine the binding affinity between ApoER2 and sclerostin, the ApoER2 protein (R&D, 3520‐AR) was biotinylated using 10 mM EZ‐Link Sulfo‐NHS‐LC‐LC‐Biotin (Thermo Scientific, 21 343) in a molar ratio of 1:20 for 2 h at 4 °C. The Slide‐A‐Lyzer Dialysis Cassettes (Thermo Scientific, 66 382) were used for excess biotin removal.^[ [61] ^] […] (SA) tray biosensors (Sartorius, 18‐5019) were used to load biotin‐ApoER2 proteins. Biosensors were pre‐wet for 10 min using 200 µL PBS containing 0.02% Tween 20 (v/v) in a 96‐well plate. […] Raw data were analyzed using Data Analysis Software (ForteBio, v8.1). All Kd values were calculated after deducting the non‐specific binding between the biosensors and the samples.^[ [62], [63] ^]",
  "note": "Read-outs that look alike come from different tables or passages of the source.",
  "data": [
    {"substance": "sclerostin: recombinant human/mouse full‐length sclerostin protein", "values": [
      {"measurement": "Kd", "setting": "Figure S6B, Sclerostin – ApoER2, read-out: Kd, binding of sclerostin to ApoER2", "result": 2.1, "unit": "nM"},
      {"measurement": "Kd", "setting": "Octet RED96e, biotin‐ApoER2 on streptavidin biosensors or His‐ApoER2 on HIS1K biosensors, non‐specific binding deducted, Figure 6B, read-out: Kd, binding of ApoER2 to sclerostin or sclerostin loop2", "result": 3.8, "unit": "nM"}
    ]}
  ]
}
